B1: Aryl-hydrocarbon-interacting protein-like 1 (Homo sapiens), Q9NZN9 (parent)
chain: MDAALLLNVEGVKKTILHGGTGELPNFITGSRVIFHFRTMKCDEERTVIDDSRQVGQPMHIIIGNMFKLEVWEILLTSMRVHEVAEFWCDTIHTGVYPILSRSLRQMAQGKDPTEWHVHTCGLANMFAYHTLGYEDLDELQKEPQPLVFVIELLQVDAPSDYQRETWNLSNHEKMKAVPVLHGEGNRLFKLGRYEEASSKYQEAIICLRNLQTKEKPWEVQWLKLEKMINTLILNYCQCLLKKEEYYEVLEHTSDILRHHPGIVKAYYVRARAHAEVWNEAEAKADLQKVLELEPSMQKAVRRELRLLENRMAEKQEEERLRCRNMLSQGATQPPAEPPTEPPAQSSTEPPAEPPTAPSAELSAGPPAEPATEPPPSPGHSLQH

Variants of: B1
Conditions: with nub1_human NUB1, Q9Y5A7
nub1_human NUB1, Q9Y5A7, sequence (Q9Y5A7 whole entry): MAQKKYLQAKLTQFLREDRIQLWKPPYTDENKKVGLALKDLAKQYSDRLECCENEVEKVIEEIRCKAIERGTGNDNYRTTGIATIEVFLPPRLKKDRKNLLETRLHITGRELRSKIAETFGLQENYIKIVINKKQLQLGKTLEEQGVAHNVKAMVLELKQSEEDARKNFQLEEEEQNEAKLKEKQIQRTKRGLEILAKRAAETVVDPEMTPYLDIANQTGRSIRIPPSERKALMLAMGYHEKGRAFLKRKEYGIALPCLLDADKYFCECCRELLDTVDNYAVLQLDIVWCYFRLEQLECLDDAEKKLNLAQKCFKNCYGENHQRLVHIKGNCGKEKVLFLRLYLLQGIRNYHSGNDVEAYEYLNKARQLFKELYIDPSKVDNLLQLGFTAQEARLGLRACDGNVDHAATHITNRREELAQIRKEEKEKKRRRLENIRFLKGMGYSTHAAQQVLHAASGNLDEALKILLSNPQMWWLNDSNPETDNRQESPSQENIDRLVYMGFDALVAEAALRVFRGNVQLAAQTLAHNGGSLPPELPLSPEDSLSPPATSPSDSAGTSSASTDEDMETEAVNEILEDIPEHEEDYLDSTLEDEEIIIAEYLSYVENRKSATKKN
For R53W, the “effect of a mutation on the interaction” value was “decreasing interaction”.
For M79T, the “effect of a mutation on the interaction” value was “decreasing interaction”.
In the case of V96I, the “effect of a mutation on the interaction” value is reported as “decreasing interaction”.
For G262S, the “effect of a mutation on the interaction” value was “decreasing interaction”.
For R302L, the “effect of a mutation on the interaction” value was “decreasing interaction”.
